The text below walks through data of publication PMC3927496.

Data set [1] addresses VEGF165 (Homo sapiens, UniProt P15692-4 27-191). As to the kind of experiment: SPR.
Data set [2] addresses thrombin (UniProt P00734;P00734 328-363;364-622). The data set can be described thus: SPR. A general note: SPR reads the build-up and loss of mass on a sensor chip optically.

The Kd is the free concentration of one partner at which half of the binding sites on the other are occupied at equilibrium, for simple one-to-one binding. Lower therefore signals higher affinity.

B1: VEa5 (ssDNA)
DNA: ATACCAGTCTATTCAATTGGGCCCGTCCGTATGGTGGGTGTGCTGGCCAGATAGTATGTGCAATCA
As to B1, the Kd in data set [1] came to 116 nM.

B2: Linker 5 (15-mer-T5-29-mer) (structured_DNA)
DNA: GGTTGGTGTGGTTGGTTTTTAGTCCGTGGTAGGGCAGGTTGGGGTGACT
In data set [2], B2 yielded a Kd of 0.06 nM.

B3: Linker 0 (15-mer-29-mer) (structured_DNA)
DNA: GGTTGGTGTGGTTGGAGTCCGTGGTAGGGCAGGTTGGGGTGACT
Take B3: binding in data set [2] was characterised by a dissociation constant (Kd) of 0.14 nM.

B4: Linker 10 (15-mer-T10-29-mer) (structured_DNA)
DNA: GGTTGGTGTGGTTGGTTTTTTTTTTAGTCCGTGGTAGGGCAGGTTGGGGTGACT
In data set [2], B4 yielded a Kd of 0.74 nM.
